Measured values reported in article PMC7954794, “Protein context shapes the specificity of SH3 domain-mediated interactions in vivo” (Nature Communications, 2021).

Test system: PPIs identified as affected by the SH3 domain deletions
Experiment: Liquid DHFR-PCA low-throughput validation of PPIs affected by SH3 deletion (Fig. S1D-E)
Assay type: cell-based, Saccharomyces cerevisiae
Conditions: label = prey, liquid DHFR-PCA, prey _1 = lost, _2 = gained in screen
Summary of the method: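 Yeast diploids from DHFR-PCA mating grown 48 h in synthetic complete MSG medium pH 6.0 with NAT and HPH, normalized to 1 OD and diluted to 0.1 OD in liquid PCA selection medium. Growth followed by OD every 15 min for 72 h at 30 °C.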

Row | Molecule | Ratio (Deletedscore / WTscore) (bait MYO5) | Ratio (Deletedscore / WTscore) (bait LSB1) | Ratio (Deletedscore / WTscore) (bait LSB3) | further results
1 | YLR258W_2 (protein, UniProt P27472 1-705, looked up) Glycogen [starch] synthase …: MSRDLQNHLLFETATEVANRVGGIYSVLKSKAPITVAQYKDHYHLIGPLNKATYQNEVDILDWKKPEAFSDEMRPVQHALQTMESRGVHFVYGRWLIEGAPKVILFDLDSVRGYSNEWKGDLWSLVGIPSPENDFETNDAILLGYTVAWFLGEVAHLDSQHAIVAHFHEWLAGVALPLCRKRRIDVVTIFTTHATLLGRYLCASGSFDFYNCLESVDVDHEAGRFGIYHRYCIERAAAHSADVFTTVSQITAFEAEHLLKRKPDGILPNGLNVIKFQAFHEFQNLHALKKEKINDFVRGHFHGCFDFDLDNTLYFFIAGRYEYKNKGADMFIEALARLNYRLKVSGSKKTVVAFIVMPAKNNSFTVEALKGQAEVRALENTVHEVTTSIGKRIFDHAIRYPHNGLTTELPTDLGELLKSSDKVMLKRRILALRRPEGQLPPIVTHNMVDDANDLILNKIRQVQLFNSPSDRVKMIFHPEFLNANNPILGLDYDEFVRGCHLGVFPSYYEPWGYTPAECTVMGVPSITTNVSGFGAYMEDLIETNQAKDYGIYIVDRRFKAPDESVEQLVDYMEEFVKKTRRQRINQRNRTERLSDLLDWKRMGLEYVKARQLALRRGYPDQFRELVGEELNDSNMDALAGGKKLKVARPLSVPGSPRDLRSNSTVYMTPGDLGTLQEVNNADDYFSLGVNPAADDDDDGPYADDS | – | – | – | Ratio (Deletedscore / WTscore) (bait ABP1): 1.221
2 | YLR332W_1 (protein, UniProt P36027 26-376, looked up) Cell wall integrity sensor …: QFFVQSSSSNSSAVSTARSSVSRVSSSSSILSSSMVSSSSADSSSLTSSTSSRSLVSHTSSSTSIASISFTSFSFSSDSSTSSSSSASSDSSSSSSFSISSTSATSESSTSSTQTSTSSSSSLSSTPSSSSSPSTITSAPSTSSTPSTTAYNQGSTITSIINGKTILSNHYTTVTYTPSATADSSNKSKSSGLSKKNRNIVIGCVVGIGVPLILVILALIYMFCIQSSRTDFIDSDGKVVTAYRANKFTKWWYMLLGKKVSDEYHSDSPLGGSASSAGGLDLDEADDVMEQSSLFDVRIRDSDSVLPNANTADHNNTNSGGEPINSSVASNDIIEEKFYDEQGNELSPRNY | – | – | – | Ratio (Deletedscore / WTscore) (bait CDC25): 0.4625; Ratio (Deletedscore / WTscore) (bait NBP2): 0.9277
3 | YHR016C_1 (protein, UniProt P32793 1-468, looked up) Protein YSC84: MGINNPIPRSLKSETKKAAKVLRSFVKPNQVFGADQVIPPYVLKRAKGLAIITVLKAGFLFSGRAGSGVIVARLKDGTWSAPSAIAMAGAGAGGMVGVELTDFVFILNSEEAVRSFSEFGTITLGGNVSVSAGPLGRSAEAAASASTGGVSAVFAYSKSKGLFAGVSVEGSAILERREANRKFYGDNCTSKMILSGRVKVPPAADPLLRILESRAFNFTRHDHDDNASGDDFYDDGQYSDNTSHYYDDIPDSFDSTDESSTRPNTRSSRRRGMSLGSRSRYDDDYDDDGYGRGRGYGDFDSEDEDYDYGRSPNRNSSRNRGPQIDRGTKPRANTRWEDDLYDRDTEYSRPNHSGRDYDNTRGNRRGYGRERGYSLGHGPTHPSNMSNVDDLSHKMSKTGLGNESTATNSATPTAVALYNFAGEQPGDLAFKKGDVITILKKSDSQNDWWTGRTNGKEGIFPANYVRVS | 0.6586 | – | – | Ratio (Deletedscore / WTscore) (bait HOF1): 0.9486; Ratio (Deletedscore / WTscore) (bait RVS167): 0.5834
4 | YCR009C_1 (protein, UniProt P25343 1-265, looked up) Reduced viability upon …: MSWEGFKKAINRAGHSVIIKNVDKTIDKEYDMEERRYKVLQRAGEALQKEAKGFLDSLRAVTASQTTIAEVISNLYDDSKYVAGGGYNVGNYYLQCVQDFDSETVKQLDGPLRETVLDPITKFSTYFKEIEEAIKKRDHKKQDFDAAKAKVRRLVDKPAKDASKLPRAEKELSLAKDIFENLNNQLKTELPQLVSLRVPYFDPSFEALIKIQLRFCTDGYTRLAQIQQYLDQQSRDDYANGLLDTKIEELLGQMTSLDICALGIK | 0.8072 | 0.9386 | 0.7612 | Ratio (Deletedscore / WTscore) (bait MYO3): 0.6894
5 | YGR037C_1 (protein, UniProt P31787 1-87, looked up) Acyl-CoA-binding protein: MVSQLFEEKAKAVNELPTKPSTDELLELYALYKQATVGDNDKEKPGIFNMKDRYKWEAWENLKGKSQEDAEKEYIALVDQLIAKYSS | – | 1.041 | – | –
6 | YLR144C_1 (protein, UniProt Q12168 1-779, looked up) Glucan …: MCYSRQAIPPPVPNRPGGTTNRGPPPLPPRANVQPPVCSSENSSKPRENRVAGESLRTPSSSNPLADSQVNSDNIFQSPVLSNLKAPPSVFNKVQHPVPKPNIDDQSVDPLETNKFYTNMLLDDNTQPIWTHPYSIWFSRDPELFGLAANHTLASQRVFDTTTNPPRFYFNPTNIKSFVFKAREFVSSNDIKLEFRDMKHMSMCLLMSLSSSQFIEFPLVQGMGFVTAIYHDLGFELRSAVGFRSLERISVNERYGKYNIQLENNRNWILYLTSPDYSFPQDFQISLLDSNTIISSHKINGLICQLSADSVPSIDMAAGCYPVYCDLSGQTVDEHFTNYRFNYTVAGYSQSGTTLMYALPHHKAAFTPEMQEREIASSLDSTVKGLMTGYLTNSFDMQVQVPQELGFEPVALSLNKKADYSQEKLSKIREAAVQEVQLSDPQQESNIDSMYFSGKILAKYAWILYVTHYILHDENLTKELLSKLTIAMERFISNQQVLPLNYDVSWKGIISSGSSSQDFGNSYYNDHHFHYSYHVITAAIISLVDSDLSGVTNNSWLENNRDWVECLIRDYSGVDNDDPYFPQFRSFDWFNGHSWAKGLFPSGDGKDEESTSEDVNSCYAIKLWGLVTGNSKLTDIANLQLGIMRNVFQSYFLYESNNTVQPKEFIGNKVSGILFENKIDHATYFGMEPQYIHMIHAIPITSASSWVRTPNFVKEEWEEKMQPIIDQVNDGWKGIIMLNMALLDPKFSYDFFSQPDFNRNFLDNGQSLTWSLAYSGAFS | – | 1.001 | 0.9902 | Ratio (Deletedscore / WTscore) (bait PIN3): 0.9919
7 | YNL084C_1 (protein, UniProt P39013 1-349, looked up) Actin cytoskeleton-regulatory …: MPKLEQFEIKKYWQIFSGLKPIENKVNHDQVLPILYNSKLDSSVLNKIWFLADIDDDDNLDFEEFVICMRLIFDMVNKNISSVPDELPDWLIPGSKVNLIKERKKRKQIENADLPPKKEIKVDWYMSPDDLNQYEKIYNSCAKLTDGTITFNELSTKLSTKFFNISKTDLNKVWSLINPQNLPSIDRDPTFYFIHCLRQRNDLGAEIPASLPNSLAEVCNKKQLSYDLRSSQPPTKRKEEANEVDNLRDNGQNSSSDSSGSNVLSNEDSIKQKYASLTDDQVANMREQLEGLLNYKKSEKTQGGSKLSKRINIRSITDDLDNIEQQVEVLENYLNNKRHELQALQAEIN | 0.7027 | 0.7759 | 0.8689 | Ratio (Deletedscore / WTscore) (bait MYO3): 0.5035
8 | YNL229C_1 (protein, UniProt P23202 2-354, looked up) Transcriptional regulator URE2: MNNNGNQVSNLSNALRQVNIGNRNSNTTTDQSNINFEFSTGVNNNNNNNSSSNNNNVQNNNSGRNGSQNNDNENNIKNTLEQHRQQQQAFSDMSHVEYSRITKFFQEQPLEGYTLFSHRSAPNGFKVAIVLSELGFHYNTIFLDFNLGEHRAPEFVSVNPNARVPALIDHGMDNLSIWESGAILLHLVNKYYKETGNPLLWSDDLADQSQINAWLFFQTSGHAPMIGQALHFRYFHSQKIASAVERYTDEVRRVYGVVEMALAERREALVMELDTENAAAYSAGTTPMSQSRFFDYPVWLVGDKLTIADLAFVPWNNVVDRIGINIKIEFPEVYKWTKHMMRRPAVIKALRGE | – | 1.043 | – | –
9 | YML016C_2 (protein, UniProt P26570 2-692, looked up) Serine/threonine-protein …: GNSSSKSSKKDSHSNSSSRNPRPQVSRTETSHSVKSAKSNKSSRSRRSLPSSSTTNTNSNVPDPSTPSKPNLEVNHQRHSSHTNRYHFPSSSHSHSNSQNELLTTPSSSSTKRPSTSRRSSYNTKAAADLPPSMIQMEPKSPILKTNNSSTHVSKHKSSYSSTYYENALTDDDNDDKDNDISHTKRFSRSSNSRPSSIRSGSVSRRKSDVTHEEPNNGSYSSNNQENYLVQALTRSNSHASSLHSRKSSFGSDGNTAYSTPLNSPGLSKLTDHSGEYFTSNSTSSLNHHSSRDIYPSKHISNDDDIENSSQLSNIHASMENVNDKNNNITDSKKDPNEEFNDIMQSSGNKNAPKKFKKPIDIDETIQKLLDAGYAAKRTKNVCLKNNEILQICIKAREIFLSQPSLLELSPPVKIVGDVHGQYGDLLRLFTKCGFPPSSNYLFLGDYVDRGKQSLETILLLFCYKIKYPENFFLLRGNHECANVTRVYGFYDECKRRCNIKIWKTFIDTFNTLPLAAIVAGKIFCVHGGLSPVLNSMDEIRHVVRPTDVPDFGLINDLLWSDPTDSPNEWEDNERGVSYCYNKVAINKFLNKFGFDLVCRAHMVVEDGYEFFNDRSLVTVFSAPNYCGEFDNWGAVMSVSEGLLCSFELLDPLDSAALKQVMKKGRQERKLANQQQQMMETSITNDNESQQ | – | – | – | Ratio (Deletedscore / WTscore) (bait ABP1): 1.259; Ratio (Deletedscore / WTscore) (bait BOI1): 1.203; Ratio (Deletedscore / WTscore) (bait BZZ1-2): 1.516
10 | YIL095W_1 (protein, UniProt P40494 1-810, looked up) Actin-regulating kinase PRK1: MNTPQISLYEPGTILTVGSHHAKIIKYLTSGGFAQVYTAEISPPDPYSNANIACLKRVIVPHKQGLNTLRAEVDAMKLLRNNKHVVSYIDSHAARSVNGIAYEVFVLMEFCERGGLIDFMNTRLQNRLQESEILEIMSQTVQGITAMHALQPPLIHRDIKIENVLISHDGLYKVCDFGSVSGVIRPPRNTQEFNYVQHDILTNTTAQYRSPEMIDLYRGLPIDEKSDIWALGVFLYKICYYTTPFEKSGEAGILHARYQYPSFPQYSDRLKNLIRLMLMEAPSQRPNICQVLEEVSRLQNKPCPIRNFYLLRAMNQNANTQLAGEPSSTTYVPTQKFIPVQSLQSINQPPNMMPVTHVSTTPNLGTFPISINDNNKTEVTAHAGLQVGSHSNLTSPLMKTKSVPLSDEFASLYYKELHPFQKSQTFKSVESFQSPQRKSMPPLSLTPVNNDIFDRVSAINRPNNYVDSETQTIDNMAVPNLKLSPTITSKSLSSTKEIAAPDNINGSKIVRSLSSKLKKVITGESRGNSPIKSRQNTGDSIRSAFGKLRHGFTGNSVNNSRSASFDNNNVNGNGNNTNRRLVSSSTSSFPKFNSDTKRKEESDKNQRLEKRRSMPPSILSDFDQHERNNSRTGSRDYYRSHSPVKKTQASAKTTSKPTLIPDNGNVNINQEKKESIQRRVHNLLKSSDDPVTYKSASGYGKYTDIGTETSNRHSSVRITPITEEKFKKTLKDGVLDIKTKSNGKDKSRPPRPPPKPLHLRTEIQKIRNFSRLQSKKLPIERISSEATETIVDVNVDDLEADFRKRFPSKV | – | – | 0.5323 | –
